According to the nanobody polyreactivity screen of Harvey et al. (2022):

Assay: yeast display, Sf9 membrane polyspecificity reagent, FACS + sequencing; frameworks hold sequencing errors
Summary of the method: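 Nanobodies came from a synthetic yeast display library in Saccharomyces cerevisiae BJ5465, induced with galactose for 36–48 hours and stained for 1 hour at 4 °C with 10% biotinylated, detergent-solubilized Sf9 membrane reagent. Cells were enriched on streptavidin microbeads and then FACS-sorted, with low and high (top ~1%) gates set on anti-HA fluorescence for expression and streptavidin fluorescence for reagent binding. Each polyreactivity label reflects the gate a clone came from. Genes were amplified by colony PCR, sequenced by MiSeq 2 × 250 and filtered by CDR length.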

| Sequence | polyreactivity (PSR sort gate) |
| --- | --- |
| QVQLVESGGGLVQAGGSLRLSCAASGSTLVYNDMGWYRQAPGKERELVAAISSGASTYADSVKGRFTISRDNAKNTVYLQMNSLKPEDTAVYYCAKDIKLGPVGHSKYHRYDYWGQGTQVTVSS | low polyreactivity |
| QVQLVESGGGLVQAGGSLRLSCAASGGIFGKYVMGWYRQAPGKERELVAGISRSAGITYYADSVKGRFTISRDNAKNTVYLQMNSLKPEDTAVYYCNARAWSYPSYHVGYDYWGQGTQVTVSS | high polyreactivity |
| QVQLVESGGGIVQAGGSLRLSCAASGRIIVNYAMGWYRQAPGKERELVAAISYSGGGTYYADSVKGRFTISRDNAKNTVYLHMNSLKPEDTAVYYCATVRRDDRYNYWGQGNQVTVSS | low polyreactivity |
| QVQLVESGGGLVQAGGSLRLSCAASGLILVYYAMGWYRQAPGKERELVAAITPGGSTKYADSVKGRFTISRDNAKNTVYLQMNSLKPEDTAVYYCYALSGPYWYSVYQSHQDDYWGQGTQVTVSS | low polyreactivity |
| QVQLAESGGGLVQAGGSLRLSCAASGRIFARNAMGWYRQAPGKERELVAAISWSGGRTYYADSVKGRFTISRDNAKNTVYLQMNSLKPEDTAVYYCAADHYPWWAWEFDYWGQGTQVTVSS | low polyreactivity |
| QVQLVESGGGLLQAAGSLRLSCAASGIIFHIYAMGWYRQAPGKERELVAAISTGSSTYYADSVKGRFTISRDNAKNTVYLQMKSLKPEDTAVYYCNAVSRLLWVKGFDYWGQGTQVTVSS | low polyreactivity |
| QVQLVESGGGLVQAGGSLRLSCAASGRIFPGYTMGWYRQAPGKEREFVAAISYSGGSTYADSVKGRFTISRDNAKNTVYLQMNSLKPEDTAVNYCAVVLQHWLDMYYWGQGTQVTVSS | low polyreactivity |
| QVQLVESWGGLVQAGGSLRLSCAASGFNPNAMGWYRQAPGKERELVAAISSNGGSTYYADSVKGRFTISRDNAKKTVYLQMNSLKPEDTAVYYCNRDQWRHTPAEGYYWGQGTQVTVSS | low polyreactivity |
| QVQLVESGGGLVQAGGSLRLSCAASGITFQYNAMGWYRQAPGKERELVAAINYSGGSTYYADSVKGRYTISRDNAKNTVYLQMNSLKPEDTAVYYCAKDGTDYSHRPGKWEFDSWGQGTQVSVSS | low polyreactivity |
| QVQLVESGGGLVQAGGSLRLSCAASGFIFYSNAMGWYRQAPGKERELVAAISRSGGSTYYADSVKGRFTISRDNAKNTVYLQMNSLKPEDTAVYYCNADYVYRRYGYWGQGSQVTVSS | high polyreactivity |
| QVQLVESGGGIDQAGGSLRLSCAASAFTLINYAMAWYRQAPGKERELVAAISQSGGSTYYADSVKGRFTISSDNAKNTVYLQMNSLKPEDTAVYYCNARRRGWGWTIGYVWRDDYWGQGTQVTVSS | high polyreactivity |
| QVQLVESGGGLVQAGGSLRLSCAASGFTFYSYDMGWYRQAPGKERELVAVITERGSSTYYADSVKGRFTISRDNAKNTVYLQMNSLKPEDTAVYYCAAYSEYYGVYYWGQGTQVTVSS | low polyreactivity |
| QVQLVESGGGLVQAGGSLRLSCAASGSIFKGYTMGWYRQAPGNERELVASMRPRGGSTYYADSVKGRFTMSRHNAKNPVDLQMNSLKPEDTAVYYCAAPWGGFAGQERKYDYWGQGTQVTVSS | low polyreactivity |
| QVQLVESGGGLVQAGGSLRLTCAASGNTFSLNPMGWYRQATGTETELVASSTWDGASTYADSVKGRFTISRDNAKNTVFLQMNSLKPEDTAVYFCAADTYRYGRFLKFDYWGQGTQVTVSS | low polyreactivity |
| QVQLVETGGGLVQAGGSLRLSCAASGSIFRYNAKGWYRQAPGKEREFVAAITRSGGSTYADSVKGRFTISRDNAKNTVSLQLNSLKPEDTAVYYCAATRLSRYEYWGQGTQVTVSS | low polyreactivity |
| QVQLVESGGGLVQAGGILRLSCAASGSTFYQYAMGWYRQAPGKERELVAAITRGGRTYYADSVKGRFTISRDNAKNTVYLQMNSLKPEDTAVYYCAAGYRTAYRGSSYYYWGQGTQVTVSS | high polyreactivity |
| QVQLVESGGGLVQAGGSLRLSCAASGFIFRSYAMGWYRQAPGKERELVAAINSRAGNTYYADSVKGRFTISRDNAKNTVYLQINSLKPEDNAVYYCNAVRHTYGYYSWGQGTQVTVSS | high polyreactivity |
| QVQLVESGGGLVQAGCSLRLSCASSGSTFEYYAKGRYRQAPGKERELGAAINGIGGSTTYADSVKGRFTISRDNAKNNVYFQMNSLKPEDTAVYYCNADVARSNSQASAYDYWGQGTQVTVSS | low polyreactivity |
| QVQLVESGGGLVQAGGSIRISCEASGITFGRNPMGCDRQAPGKERELVDAIDSGGNTYADSVKGRFTISRDNAKNTFYLQMNRLIPEDTAVYYCAVDGGEFSSYGYWGQGTQVTVSS | low polyreactivity |
| QVQLVESGGGLVQAGGSLRLSCAASGGTYRSNAMGWYRQAPGKERELVAASTNYADSVKGRFTISRDNAKNTVYLQMNSLKPEDTAVYYCAAGPTDSQTGMDYWGQGTQVTVSS | low polyreactivity |
| QVQLVESGGGLVQAGGSLRLSCAASGITFYGNAMGWYRQAPGKERELVAAITASGGRTYYADSVKGRFTISRDNAKNTVYLQMNSLKPEDTAVYYCAAKKATVVYRMEYWGQGTQVTVSS | high polyreactivity |
